The text below walks through data of patent publication US20250353920A1 (SUBDOMAIN, published 2025).

The target of one assay is T1, CD123 (Homo sapiens (Human), UniProt P26951 19-305, limits assumed).
T1 sequence: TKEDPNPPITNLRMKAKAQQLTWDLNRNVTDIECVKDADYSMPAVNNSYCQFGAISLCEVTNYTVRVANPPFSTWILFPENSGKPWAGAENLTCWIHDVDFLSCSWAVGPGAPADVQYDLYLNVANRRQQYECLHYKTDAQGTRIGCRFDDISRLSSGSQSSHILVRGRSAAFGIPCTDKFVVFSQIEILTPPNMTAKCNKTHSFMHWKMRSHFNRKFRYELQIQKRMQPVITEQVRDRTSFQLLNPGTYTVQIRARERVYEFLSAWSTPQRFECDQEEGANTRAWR
The experiment in a line: library selection; assay not told.

The target of assay [1] is control (IgG Fc). Description: phage ELISA, 89 identical clones, control wells. In general terms: ELISA stands for enzyme-linked immunosorbent assay.
Assay [2] addresses control (IgG Fc). The experiment in a line: phage ELISA, control wells, lower end of the distribution.
The target of assay [3] is control (IgG Fc). Description: phage ELISA, control wells, upper end of the distribution.

B1: SEQ ID NO 101 (designed binder)
chain: MGSWTEFDRRLDAIWDRLFALGGSEAELAAFEKEIAAFESELQAYKGKGNPEVEWLREEAADIRDYLQAYRHN
notes: DBDpp, library F3
Consider B1, for which the binding result in the assay with CD123 is given as “binds”.

B2: SEQ ID NO 102 (designed binder)
chain: MGSWTEFDRRLDAIWDRLFALGGSEAELAAFEKEIAAFESELQAYKGKGNPEVEWLREEAADIRDYLQAYRHN
notes: DBDpp, library F3
In the case of B2, the binding result with CD123 is reported as “binds”.

B3: SEQ ID NO 114 (designed binder)
chain: MGSWTEFDRRLDAIWDRLFALGGSEAELAAFEKEIAAFESELQAYKGKGNPEVEWLREEAADIRDYLQAYRHN
notes: DBDpp, library F3
Turning to B3, the binding result with CD123 is “binds”.

B4: bb10 (designed binder)
chain: MGSWAEFKQRLAAIKTRLEALGGSEAELAAFLGEIWAFEMELAAYKGKGNPEVEALGREAAAIRMELQAYRHN
For B4, the ELISA absorbance came to 0.067 OD in the assay with control (IgG Fc) [1], 0.056 OD in the assay with control (IgG Fc) [2] and 0.125 OD with control (IgG Fc) [3].
